Laboratory results taken from patent US20220229068A1, “DETECTION OF PROTEIN TO PROTEIN INTERACTIONS” (THE GOVERNING COUNCIL OF THE UNIVERSITY OF TORONTO, priority 2019, published 2022).

Columns and labels:
[1] = biological target: T1, PDPK1 (prey, CIC format) (human) (UniProt O15530); experiment: SIMPL ELISA, bait-IN/prey-CIC
T1 sequence (looked up): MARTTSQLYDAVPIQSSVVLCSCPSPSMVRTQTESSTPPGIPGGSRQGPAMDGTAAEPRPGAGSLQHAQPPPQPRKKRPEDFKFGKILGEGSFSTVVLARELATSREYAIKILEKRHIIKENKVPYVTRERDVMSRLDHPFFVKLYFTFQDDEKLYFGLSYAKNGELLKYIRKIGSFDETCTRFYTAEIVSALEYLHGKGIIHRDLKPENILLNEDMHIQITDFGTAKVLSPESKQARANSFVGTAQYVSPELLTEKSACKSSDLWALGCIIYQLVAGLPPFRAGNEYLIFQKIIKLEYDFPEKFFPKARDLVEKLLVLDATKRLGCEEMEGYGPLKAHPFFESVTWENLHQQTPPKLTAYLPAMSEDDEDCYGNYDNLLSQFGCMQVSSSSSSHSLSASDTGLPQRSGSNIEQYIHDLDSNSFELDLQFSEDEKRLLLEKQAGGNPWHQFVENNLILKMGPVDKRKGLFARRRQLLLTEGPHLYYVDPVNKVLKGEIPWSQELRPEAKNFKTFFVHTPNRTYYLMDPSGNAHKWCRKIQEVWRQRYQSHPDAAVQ

[2] = biological target: T2, PEX19 (prey, CIC format) (human) (UniProt P40855); experiment: SIMPL ELISA, bait-IN/prey-CIC
T2 sequence (looked up): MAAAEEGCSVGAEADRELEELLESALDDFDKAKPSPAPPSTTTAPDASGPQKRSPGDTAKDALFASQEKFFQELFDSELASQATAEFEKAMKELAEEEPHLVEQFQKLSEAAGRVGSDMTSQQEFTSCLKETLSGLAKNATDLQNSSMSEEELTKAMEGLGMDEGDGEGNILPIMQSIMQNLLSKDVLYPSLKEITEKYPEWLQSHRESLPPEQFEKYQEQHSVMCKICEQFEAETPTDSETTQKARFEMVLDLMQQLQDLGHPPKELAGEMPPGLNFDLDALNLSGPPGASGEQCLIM

[3] = biological target: TCL1A (prey, CIC format) (human) (UniProt P56279); experiment: SIMPL ELISA, bait-IN/prey-CIC
[4] = biological target: CYB-1 (C. elegans prey, CIC format) (C. elegans) (UniProt Q10653); experiment: SIMPL ELISA, C. elegans lysate, IN/CIC; ratio of spliced signal to total signal
[5] = biological target: T3, SOC-2 (C. elegans prey, IC format) (C. elegans) (UniProt Q22875); experiment: SIMPL ELISA, C. elegans lysate, IN/IC; ratio of spliced signal to total signal
T3 sequence (looked up): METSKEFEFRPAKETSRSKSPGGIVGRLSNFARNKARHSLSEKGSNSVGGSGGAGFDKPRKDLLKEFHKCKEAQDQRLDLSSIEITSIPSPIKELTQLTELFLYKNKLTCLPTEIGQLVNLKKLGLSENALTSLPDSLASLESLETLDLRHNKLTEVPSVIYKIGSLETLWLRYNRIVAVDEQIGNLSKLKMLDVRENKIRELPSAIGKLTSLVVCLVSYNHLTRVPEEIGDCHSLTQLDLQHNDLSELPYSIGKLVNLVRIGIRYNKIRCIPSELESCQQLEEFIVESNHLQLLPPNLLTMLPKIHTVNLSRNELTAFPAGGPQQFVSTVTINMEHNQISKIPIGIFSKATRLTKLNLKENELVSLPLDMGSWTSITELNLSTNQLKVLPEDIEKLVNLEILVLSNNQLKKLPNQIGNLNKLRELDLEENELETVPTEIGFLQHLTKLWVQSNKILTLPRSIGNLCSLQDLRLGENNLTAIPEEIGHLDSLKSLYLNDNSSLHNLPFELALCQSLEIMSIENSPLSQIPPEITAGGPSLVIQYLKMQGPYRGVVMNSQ

[6] = biological target: T4, SOC-2 (C. elegans prey, CIC format) (C. elegans) (UniProt Q22875); experiment: SIMPL ELISA, C. elegans lysate, IN/CIC; ratio of spliced signal to total signal
T4 sequence (looked up): T3 sequence (looked up)

[7] = biological target: LMNB1 (prey, CIC format) (human) (UniProt P20700); experiment: SIMPL ELISA, bait-IN/prey-CIC
[8] = biological target: T5, RB1 (prey, CIC format) (human) (UniProt P06400); experiment: SIMPL ELISA, bait-IN/prey-CIC
T5 sequence (looked up): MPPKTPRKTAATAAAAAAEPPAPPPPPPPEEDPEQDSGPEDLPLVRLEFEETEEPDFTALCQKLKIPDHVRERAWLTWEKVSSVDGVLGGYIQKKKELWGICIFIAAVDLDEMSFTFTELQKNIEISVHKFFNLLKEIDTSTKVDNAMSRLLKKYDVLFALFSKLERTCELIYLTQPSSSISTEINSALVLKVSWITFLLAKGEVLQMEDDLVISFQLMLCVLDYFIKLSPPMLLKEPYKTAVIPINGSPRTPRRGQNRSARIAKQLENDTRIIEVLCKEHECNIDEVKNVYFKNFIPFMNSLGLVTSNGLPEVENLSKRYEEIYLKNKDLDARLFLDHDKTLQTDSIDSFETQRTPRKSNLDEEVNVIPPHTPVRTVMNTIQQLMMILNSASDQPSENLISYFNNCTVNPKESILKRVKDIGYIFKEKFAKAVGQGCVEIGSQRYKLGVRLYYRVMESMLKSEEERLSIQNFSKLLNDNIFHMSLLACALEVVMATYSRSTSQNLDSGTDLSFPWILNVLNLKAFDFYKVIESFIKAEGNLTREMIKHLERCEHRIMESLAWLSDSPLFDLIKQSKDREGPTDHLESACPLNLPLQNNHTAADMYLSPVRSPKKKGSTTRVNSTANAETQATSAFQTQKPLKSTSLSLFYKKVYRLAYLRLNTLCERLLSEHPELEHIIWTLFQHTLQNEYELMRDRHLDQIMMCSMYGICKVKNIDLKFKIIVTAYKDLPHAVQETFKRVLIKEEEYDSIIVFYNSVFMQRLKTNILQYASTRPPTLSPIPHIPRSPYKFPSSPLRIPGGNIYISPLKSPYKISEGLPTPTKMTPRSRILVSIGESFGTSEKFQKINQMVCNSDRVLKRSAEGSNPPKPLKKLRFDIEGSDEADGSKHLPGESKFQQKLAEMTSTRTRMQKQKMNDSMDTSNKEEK

[9] = biological target: T6, PEX3 (prey, CIC format) (human) (UniProt P56589); experiment: SIMPL ELISA, bait-IN/prey-CIC
T6 sequence (looked up): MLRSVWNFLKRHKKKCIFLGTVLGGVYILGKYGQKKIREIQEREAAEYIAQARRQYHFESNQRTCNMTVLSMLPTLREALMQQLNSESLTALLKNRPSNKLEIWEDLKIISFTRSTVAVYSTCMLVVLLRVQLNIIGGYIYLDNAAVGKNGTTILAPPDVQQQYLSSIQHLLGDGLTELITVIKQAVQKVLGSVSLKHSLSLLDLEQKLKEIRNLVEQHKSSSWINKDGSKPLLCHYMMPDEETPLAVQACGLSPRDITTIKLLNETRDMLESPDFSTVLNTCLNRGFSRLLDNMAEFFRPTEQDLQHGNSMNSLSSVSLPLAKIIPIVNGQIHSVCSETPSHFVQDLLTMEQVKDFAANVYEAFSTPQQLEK

[10] = biological target: NPP-1 (C. elegans prey, IC format) (C. elegans); experiment: SIMPL ELISA, C. elegans lysate, IN/IC; ratio of spliced signal to total signal
[11] = biological target: HSP90AA1 (prey, CIC format) (human) (UniProt P07900); experiment: SIMPL ELISA, bait-IN/prey-CIC
[12] = biological target: RAD23A (prey, CIC format) (human) (UniProt P54725); experiment: SIMPL ELISA, bait-IN/prey-CIC
[13] = biological target: RELA (prey, CIC format) (human) (UniProt Q04206); experiment: SIMPL ELISA, bait-IN/prey-CIC
[14] = biological target: EZR (prey, CIC format) (human) (UniProt P15311); experiment: SIMPL ELISA, bait-IN/prey-CIC
[15] = biological target: RACK1 (prey, CIC format) (human) (UniProt P63244); experiment: SIMPL ELISA, bait-IN/prey-CIC
[16] = biological target: RAN (prey, CIC format) (human) (UniProt P62826); experiment: SIMPL ELISA, bait-IN/prey-CIC
[17] = biological target: PTPN11 (prey, CIC format) (human) (UniProt Q06124); experiment: SIMPL ELISA, bait-IN/prey-CIC
[18] = biological target: T7, NCBP2 (prey, CIC format) (human) (UniProt P52298); experiment: SIMPL ELISA, bait-IN/prey-CIC
T7 sequence (looked up): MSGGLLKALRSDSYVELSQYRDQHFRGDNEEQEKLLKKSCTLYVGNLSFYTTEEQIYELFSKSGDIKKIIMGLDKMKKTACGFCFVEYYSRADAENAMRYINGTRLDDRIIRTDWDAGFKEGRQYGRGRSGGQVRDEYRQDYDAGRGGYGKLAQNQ

[19] = biological target: T8, FRS2 (prey, CIC format) (human) (UniProt Q8WU20); experiment: SIMPL ELISA, bait-IN/prey-CIC
T8 sequence (looked up): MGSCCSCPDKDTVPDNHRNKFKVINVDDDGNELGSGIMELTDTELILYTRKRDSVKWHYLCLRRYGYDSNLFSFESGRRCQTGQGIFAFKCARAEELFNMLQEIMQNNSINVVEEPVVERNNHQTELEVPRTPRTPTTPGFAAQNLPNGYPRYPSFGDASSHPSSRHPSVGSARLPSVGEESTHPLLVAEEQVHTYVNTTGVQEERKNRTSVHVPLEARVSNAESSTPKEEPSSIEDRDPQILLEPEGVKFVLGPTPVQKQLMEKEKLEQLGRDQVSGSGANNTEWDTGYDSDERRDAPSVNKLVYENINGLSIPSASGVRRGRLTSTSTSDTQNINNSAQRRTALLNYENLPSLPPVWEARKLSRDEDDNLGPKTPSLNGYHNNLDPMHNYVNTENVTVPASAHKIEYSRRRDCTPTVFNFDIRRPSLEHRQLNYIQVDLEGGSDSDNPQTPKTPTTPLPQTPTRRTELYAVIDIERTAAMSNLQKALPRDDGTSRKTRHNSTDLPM

[20] = biological target: F44B9.8 (C. elegans prey, IC format) (C. elegans) (UniProt P34429); experiment: SIMPL ELISA, C. elegans lysate, IN/IC; ratio of spliced signal to total signal
[21] = biological target: ARHGAP1 (prey, CIC format) (human) (UniProt Q07960); experiment: SIMPL ELISA, bait-IN/prey-CIC
[22] = biological target: CCNA1 (prey, CIC format) (human) (UniProt P78396); experiment: SIMPL ELISA, bait-IN/prey-CIC
[23] = biological target: ZBTB16 (prey, CIC format) (human) (UniProt Q05516); experiment: SIMPL ELISA, bait-IN/prey-CIC
[24] = biological target: CASP9 (prey, CIC format) (human) (UniProt P55211); experiment: SIMPL ELISA, bait-IN/prey-CIC
[25] = biological target: T9, ARFIP2 (prey, CIC format) (human) (UniProt P53365); experiment: SIMPL ELISA, bait-IN/prey-CIC
T9 sequence (looked up): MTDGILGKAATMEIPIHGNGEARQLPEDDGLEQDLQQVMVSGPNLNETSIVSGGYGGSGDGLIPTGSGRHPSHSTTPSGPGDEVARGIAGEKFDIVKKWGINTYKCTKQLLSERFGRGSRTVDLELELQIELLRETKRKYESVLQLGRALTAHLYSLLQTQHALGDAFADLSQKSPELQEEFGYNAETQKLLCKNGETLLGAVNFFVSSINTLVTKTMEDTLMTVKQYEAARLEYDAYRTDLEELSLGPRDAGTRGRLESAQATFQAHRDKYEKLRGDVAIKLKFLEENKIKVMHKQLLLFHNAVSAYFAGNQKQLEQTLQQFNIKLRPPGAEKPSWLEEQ

Substance: AKT1 (bait, IN format) (from UniProt P31749 1-480) (enzyme)
- PLU mean [1]: 0.486
- PLU mean [2]: 0.218
- PLU mean [3]: 0.111

Substance: CDK-1 (C. elegans bait, IN-V5/HA) (from UniProt P34556 1-332) (enzyme)
- ELISA Value Replicate 1 [4]: 1.1
- ELISA Value Replicate 2 [4]: 0.8

Substance: LET-60 (C. elegans bait, IN-V5/HA) (from UniProt P22981 1-184)
- ELISA Value Replicate 1 [5]: 1.2
- ELISA Value Replicate 2 [5]: 0.59
- ELISA Value Replicate 1 [6]: 0.79
- ELISA Value Replicate 2 [6]: 0.7

Substance: LMNA (bait, IN format) (from UniProt P02545 1-664)
- PLU mean [7]: 0.861
- PLU mean [8]: 1.18
- PLU mean [9]: 0.224

Substance: NPP-11 (C. elegans bait, IN-V5/HA)
- ELISA Value Replicate 1 [10]: 1.8
- ELISA Value Replicate 2 [10]: 0.92

Substance: NR3C1 (bait, IN format) (from UniProt P04150 1-777) (receptor)
- PLU mean [11]: 0.652
- PLU mean [12]: 0.183
- PLU mean [13]: 0.63

Substance: PDE4D (bait, IN format) (from UniProt Q08499 1-809) (enzyme)
- PLU mean [14]: 0.137
- PLU mean [15]: 0.639

Substance: PDGFRB (bait, IN format) (from UniProt P09619 33-1106) (receptor)
- PLU mean [16]: 0.143
- PLU mean [17]: 0.539

Substance: RET (bait, IN format) (from UniProt P07949 29-1114) (receptor)
- PLU mean [18]: 1.06
- PLU mean [19]: 0.608

Substance: RFC-2 (C. elegans bait, IN-V5/HA)
- ELISA Value Replicate 1 [20]: 0.66
- ELISA Value Replicate 2 [20]: 0.88

Substance: RHOA (bait, IN format) (from UniProt P61586 1-193)
- PLU mean [21]: 0.486
- PLU mean [22]: 0.36
- PLU mean [23]: 0.691

Substance: XIAP (bait, IN format) (from UniProt P98170 1-497)
- PLU mean [24]: 0.811
- PLU mean [25]: 0.439
